Results published in US20040033229A1 (published 2004).

Target: prostate specific membrane antigen (PSMA), full-length, on the cell surface (human, UniProt Q04609 1-750)
Assay: cell-based or functional assay

Sequence of prostate specific membrane antigen (PSMA), full-length, on the cell surface (Q04609 whole entry): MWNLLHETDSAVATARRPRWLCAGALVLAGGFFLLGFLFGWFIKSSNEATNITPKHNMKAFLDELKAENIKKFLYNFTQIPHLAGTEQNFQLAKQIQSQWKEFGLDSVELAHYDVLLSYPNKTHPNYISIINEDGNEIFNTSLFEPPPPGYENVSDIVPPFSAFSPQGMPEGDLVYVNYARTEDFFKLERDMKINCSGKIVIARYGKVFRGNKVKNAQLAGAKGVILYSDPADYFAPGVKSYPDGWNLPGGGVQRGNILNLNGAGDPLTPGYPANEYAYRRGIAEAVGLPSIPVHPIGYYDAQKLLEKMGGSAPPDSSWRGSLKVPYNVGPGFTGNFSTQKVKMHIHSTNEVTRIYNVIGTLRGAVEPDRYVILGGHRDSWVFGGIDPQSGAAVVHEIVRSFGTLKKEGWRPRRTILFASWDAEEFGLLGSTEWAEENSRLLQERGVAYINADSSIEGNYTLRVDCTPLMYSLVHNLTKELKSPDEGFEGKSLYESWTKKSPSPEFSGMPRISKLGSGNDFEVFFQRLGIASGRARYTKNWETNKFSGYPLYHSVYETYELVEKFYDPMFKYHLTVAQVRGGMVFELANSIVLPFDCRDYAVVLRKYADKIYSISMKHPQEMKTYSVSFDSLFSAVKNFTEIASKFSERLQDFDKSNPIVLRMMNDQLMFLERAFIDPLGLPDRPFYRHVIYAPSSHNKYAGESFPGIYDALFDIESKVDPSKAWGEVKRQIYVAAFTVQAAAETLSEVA

B1: 225Ac labeled mAb 026 (antibody, V domains shown)
VH: QVQLVESGGGVVQPGRSLRLSCAASGFTFSNYVMHWVRQAPGKGLEWVAIIWYDGSNKYYADSVKGRFTISRDNSKNTLYLQMNSLRAEDTAVYYCAGGYNWNYEYHYYGMDVWGQGTTVTVSS
VL: DIQMTQSPSSLSASVGDRVTITCRASQGITNYLAWFQQKPGKAPKSLIYAASSLQSGVPSKFSGSGSGTDFSLTISSLQPEDFATYYCQQYNSYPITFGQGTRLEIK
modifications: 225Ac-DOTA conjugate, sites not stated; 225Ac-DOTA conjugate, sites not stated ; 225Ac chelated by DOTA and conjugated to the antibody; sites not stated
- IC50 of cell survival (3H thymidine incorporation), C4-2 cells: 0.12 nCi/mL
- IC50 of cell survival, C4-2 and LNCaP cells: < 1 nCi/mL
- selectivity of killing, C4-2 against PC3: > 50 fold
